Consider two molecules from patent US20240316154A1 (Eli Lilly, published 2024).

Where two headings read alike, the source gives them in different places.

Assay [1] concerns the target T1, Rabbit serum albumin (rabbit, UniProt P49065 25-608).
T1 construct: bought; immobilised on a CM5 chip by amine coupling; also called Rabbit SA
The experiment in a line: SPR, SA on chip, 25 C.
Protocol: (§1) Human SA is obtained from Sigma Aldrich (Cat. No. A8763). […] Mouse SA is obtained from Sigma Aldrich (Cat. No. A3139). Rat SA is obtained from Sigma Aldrich (Cat. No. A4538). Pig SA is obtained from Sigma Aldrich (Cat. No. A4414). […] Cow SA is obtained from Sigma Aldrich (Cat. No. A7030). […] Excess reactive groups on the surfaces (flow cell 1 and 2) are deactivated by injecting 70 μl of 1 M Ethanolamine hydrochloride-NaOH pH 8.5.
(§2) 180 μl of sample are individually injected sequentially across the immobilized SAs on the chip's surface and dissociated for 600 sec at 60 μl/min flow rate at 25° C.

Assay [2] deals with T2, human CNTF receptor (CNTFR) on IMR-32 cells (human, UniProt P26992 23-342).
T2 sequence (looked up): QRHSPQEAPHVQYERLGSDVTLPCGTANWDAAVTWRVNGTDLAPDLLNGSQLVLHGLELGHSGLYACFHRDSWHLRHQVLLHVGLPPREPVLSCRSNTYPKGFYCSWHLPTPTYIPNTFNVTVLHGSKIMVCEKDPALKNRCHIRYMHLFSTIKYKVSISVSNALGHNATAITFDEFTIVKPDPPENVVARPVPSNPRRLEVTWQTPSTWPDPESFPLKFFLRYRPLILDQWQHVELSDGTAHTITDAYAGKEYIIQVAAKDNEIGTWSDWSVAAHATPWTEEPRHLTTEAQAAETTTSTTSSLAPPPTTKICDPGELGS
Briefly: cell-based or functional assay.

The target in assay [3] is T3, Human serum albumin (human, UniProt P02768 25-609).
T3 construct: bought; immobilised on a CM5 chip by amine coupling; also called Human SA
The experiment in a line: SPR, SA on chip, 1:1 fit, 25 C.
Protocol: as §1, §2

The target of assay [4] is T4, Cynomolgus monkey serum albumin (cynomolgus monkey, UniProt A2V9Z4 25-608).
T4 construct: bought; immobilised on a CM5 chip by amine coupling; also called Cyno SA
The experiment in a line: SPR, SA on chip, 1:1 fit, 25 C.
Protocol: as §1, §2

The target in assay [5] is T5, Mouse serum albumin (mouse, UniProt P07724 25-608).
T5 construct: bought; immobilised on a CM5 chip by amine coupling; also called Mouse SA
The experiment in a line: SPR, SA on chip, 1:1 fit, 25 C.
Protocol: as §1, §2

In assay [6] the target is T6, Rat serum albumin (rat, UniProt P02770 25-608).
T6 construct: bought; immobilised on a CM5 chip by amine coupling; also called Rat SA
The experiment in a line: SPR, SA on chip, 1:1 fit, 25 C.
Protocol: as §1, §2

Assay [7] addresses T7, Pig serum albumin (pig, UniProt P08835 25-607).
T7 construct: bought; immobilised on a CM5 chip by amine coupling; also called Pig SA
The experiment in a line: SPR, SA on chip, 1:1 fit, 25 C.
Protocol: as §1, §2

In assay [8] the target is T8, Dog serum albumin (dog, UniProt P49822 25-608).
T8 construct: bought; immobilised on a CM5 chip by amine coupling; also called Dog SA
Briefly: SPR, SA on chip, 1:1 fit, 25 C.
Protocol: as §1, §2

The target of assay [9] is T9, Cow serum albumin (cow, UniProt P02769 25-607).
T9 construct: bought; immobilised on a CM5 chip by amine coupling; also called Cow SA
The experiment in a line: SPR, SA on chip, 1:1 fit, 25 C.
Protocol: as §1, §2

Assay [10] deals with T1, Rabbit serum albumin. Briefly: SPR, SA on chip, 25 C. The source holds these as a separate data set.
Protocol: as §1, §2
The target of assay [11] is T3, Human serum albumin. Briefly: SPR, SA on chip, 1:1 fit, 25 C. This is another data set of the same source.
Protocol: as §1, §2
Assay [12] deals with T4, Cynomolgus monkey serum albumin. Briefly: SPR, SA on chip, 1:1 fit, 25 C. This is another data set of the same source.
Protocol: as §1, §2
In assay [13] the target is T5, Mouse serum albumin. Briefly: SPR, SA on chip, 1:1 fit, 25 C. The source holds these as a separate data set.
Protocol: as §1, §2
Assay [14] concerns the target T6, Rat serum albumin. Briefly: SPR, SA on chip, 1:1 fit, 25 C. This is another data set of the same source.
Protocol: as §1, §2
Assay [15] deals with T7, Pig serum albumin. The experiment in a line: SPR, SA on chip, 1:1 fit, 25 C. The source holds these as a separate data set.
Protocol: as §1, §2
Assay [16] has as its target T8, Dog serum albumin. Briefly: SPR, SA on chip, 1:1 fit, 25 C. This is another data set of the same source.
Protocol: as §1, §2
The target in assay [17] is T9, Cow serum albumin. Briefly: SPR, SA on chip, 1:1 fit, 25 C. The source holds these as a separate data set.
Protocol: as §1, §2

B1: VHH-based fusion of Example 2, VHH fusion 2 (MC6.1C22-(G4Q)5-CNTF) (other)
chain: EVQLLESGGGLVQPGGSLRLSCAASGRYIDETAVAWFRQAPGKEREFVAGIGGGVDITYYADSVKGRFTISRDNSKNTLYLQMNSLRPEDTAVYYCAARPGRPLITSKVADLYPYWGQGTLVTVSSGGGGQGGGGQGGGGQGGGGQGGGGQMAFTEHSPLTPHRRDLASRSIWLARKIRSDLTALTESYVKHQGLNKNINLDSADGMPVASTDRWSELTEAERLQENLQAYRTFHVLLARLLEDQQVHFTPTEGDFHQAIHTLLLQVAAFAYQIEELMILLEYKIPRNEADGMPINVGDGGLFEKKLWGLKVLQELSQWTVRSIHDLRFISSHQTG
notes: also called Compound 2; VHH-CNTF fusion
As to B1, the binding result with Rabbit serum albumin [1] was “no binding (tested: up to 1000 nM)”. Further, the “hCNTFR EC50 pM GeoMean (pSTAT3 in IMR-32 cells)” value in assay [2] came to 8.39 pM. Besides, the Kd in the assay with Human serum albumin [3] amounted to 0.58 nM; in [4], 1.2 nM; with Mouse serum albumin [5], 8.8 nM; with Rat serum albumin [6], 6.1 nM; with Pig serum albumin [7] it was 19 nM; in the assay with Dog serum albumin [8], 3.7 nM. The same molecule showed a Kd with Cow serum albumin [9] of 110 nM. Besides, the koff turned out to be 0.00025 s⁻¹ in the assay with Human serum albumin [3]; 0.0006 s⁻¹ in [4]; 0.0042 s⁻¹ with Mouse serum albumin [5]; 0.003 s⁻¹ with Rat serum albumin [6]; 0.0057 s⁻¹ with Pig serum albumin [7]; 0.0017 s⁻¹ with Dog serum albumin [8]. The molecule also had a koff with Cow serum albumin [9] of 0.052 s⁻¹. For the same molecule, the kon with Human serum albumin [3] was 430000 M⁻¹ s⁻¹; in [4], 500000 M⁻¹ s⁻¹; with Mouse serum albumin [5], 480000 M⁻¹ s⁻¹; with Rat serum albumin [6] it was 490000 M⁻¹ s⁻¹; with Pig serum albumin [7], 300000 M⁻¹ s⁻¹; in the assay with Dog serum albumin [8], 460000 M⁻¹ s⁻¹. The kon with Cow serum albumin [9] worked out at 460000 M⁻¹ s⁻¹.

B2: VHH-based fusion of Example 1, VHH fusion 1 (CNTF-(G4Q)5-MC6.1C22.43) (other)
chain: MAFTEHSPLTPHRRDLASRSIWLARKIRSDLTALTESYVKHQGLNKNINLDSADGMPVASTDRWSELTEAERLQENLQAYRTFHVLLARLLEDQQVHFTPTEGDFHQAIHTLLLQVAAFAYQIEELMILLEYKIPRNEADGMPINVGDGGLFEKKLWGLKVLQELSQWTVRSIHDLRFISSHQTGGGGGQGGGGQGGGGQGGGGQGGGGQEVQLLESGGGLVQPGGSLRLSCAASGRYIDETAVAWFRQAPGKEREFVAGIGGGVDITYYADSVKGRFTISRDNSKNTLYLQMNSLRPEDTAVYYCAARPGRPLITSKVADLYPYWGQGTLVTVSSPP
notes: also called Compound 1; CNTF-VHH fusion
As for B2, the binding result in the assay with Rabbit serum albumin [10] is reported as “no binding (tested: up to 1000 nM)”. Further, the “hCNTFR EC50 pM GeoMean (pSTAT3 in IMR-32 cells)” value in assay [2] was 7.09 pM. The Kd was 3.2 nM in the assay with Human serum albumin [11]; 13 nM in assay [12]; 100 nM in the assay with Mouse serum albumin [13]; 83 nM with Rat serum albumin [14]; 190 nM with Pig serum albumin [15]; 40 nM with Dog serum albumin [16]. Further, the Kd in the assay with Cow serum albumin [17] came out at 820 nM. In addition, the koff with Human serum albumin [11] was 0.00024 s⁻¹; in assay [12], 0.00086 s⁻¹; in the assay with Mouse serum albumin [13] it was 0.0082 s⁻¹; in the assay with Rat serum albumin [14], 0.0063 s⁻¹; in the assay with Pig serum albumin [15] it was 0.011 s⁻¹; with Dog serum albumin [16], 0.0032 s⁻¹. The same molecule came in with a koff with Cow serum albumin [17] of 0.074 s⁻¹. Moreover, the kon with Human serum albumin [11] worked out at 76000 M⁻¹ s⁻¹; in assay [12], 68000 M⁻¹ s⁻¹; in the assay with Mouse serum albumin [13], 81000 M⁻¹ s⁻¹; with Rat serum albumin [14], 75000 M⁻¹ s⁻¹; in the assay with Pig serum albumin [15], 58000 M⁻¹ s⁻¹; with Dog serum albumin [16], 79000 M⁻¹ s⁻¹. The molecule further yielded a kon in the assay with Cow serum albumin [17] of 91000 M⁻¹ s⁻¹.
